Laboratory results taken from article PMC5763331.

Target: PROTEOLYSIS1 (PRT1) (Arabidopsis thaliana) (UniProt Q8LBL5)
Sequence (Q8LBL5 whole entry): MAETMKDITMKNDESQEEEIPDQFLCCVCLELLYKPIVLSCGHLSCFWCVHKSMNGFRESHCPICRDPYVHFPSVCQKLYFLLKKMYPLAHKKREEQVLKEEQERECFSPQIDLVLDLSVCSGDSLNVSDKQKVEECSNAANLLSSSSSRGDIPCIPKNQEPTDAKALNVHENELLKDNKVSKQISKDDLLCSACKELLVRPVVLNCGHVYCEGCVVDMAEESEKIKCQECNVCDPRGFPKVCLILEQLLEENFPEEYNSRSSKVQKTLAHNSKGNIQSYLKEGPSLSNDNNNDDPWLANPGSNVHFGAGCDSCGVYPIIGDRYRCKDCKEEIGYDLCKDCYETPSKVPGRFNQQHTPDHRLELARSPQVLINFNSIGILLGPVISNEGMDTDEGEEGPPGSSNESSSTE

Chain of E2-conjugating enzyme UBC8 (P35131 whole entry): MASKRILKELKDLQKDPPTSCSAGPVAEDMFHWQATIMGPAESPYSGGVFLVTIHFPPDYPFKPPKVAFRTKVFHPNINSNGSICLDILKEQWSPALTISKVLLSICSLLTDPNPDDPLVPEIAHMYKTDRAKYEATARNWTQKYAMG

E2-conjugating enzyme UBC8 (from UniProt P35131 1-148)
Michaelis-Menten constant (K M) of substrate ubiquitination by PRT1 at different E2 concentrations (fluorescence polarization of the F-eK-Flv-NBD substrate, UBC8 up to 2 μM): 0.08 µM
